Biological target: the molecule itself
Experiment: SEC

Row | Protein | stoichiometry N
1 | human Hsp90α full-length protein with part of the charged linker between N and M removed (Hsp90Δ) (natural protein) not shown | 2
2 | human Hsp90α MC two-domain construct (domain or fragment) not shown | 2

Source: article PMC3143201 (Journal of molecular biology, 2011)
